Test results from paper PMC4182809.

Target: plastidic glutamine synthetase (GS2), spinach, 420 kDa stromal holoenzyme (spinach (Spinacia oleracea), endogenous in leaf chloroplasts)
Experiment: native gel or EMSA; BN-PAGE (4-16% Bis-Tris gradient gel, 4°C) of stroma and thylakoid proteins of chloroplasts, western blot, with 2D SDS-PAGE; extraction in 20 mM Hepes-KOH pH 7.5, or potassium phosphate pH 6 or pH 8 with or without 0.1 M NaCl, 10 mM DTT or 10 mM ascorbic acid

- stoichiometry N: 10
Substance: plastidic glutamine synthetase (GS2), spinach, 420 kDa stromal holoenzyme
